Our source for the self-cleavage values is the RNAGym collection of RNA variant scans (doi:10.7554/elife.80360).

Sequences and labels used below:
B1: HDV Ribozyme (parent)
chain: GGCCGGCAUGGUCCCAGCCUCCUCGCUGGCGCCGGCUGGGCAACAUUCCGAGGGGACCGUCCCCUCGGUAAUGGCGAAUGGGACCCA

The variants in the data set derive from B1. The experiment in a line: self-cleavage, relative activity (ratio to wild type); higher = more cleavage; co-transcriptional.
Regarding G6C U46A, the self-cleavage is 0.
Consider G6C U46G, for which the self-cleavage amounted to 0.
In the case of G6A G82U, the self-cleavage turned out to be 0.188.
As for G6C G31U, the self-cleavage was 0.
On to G6A G11U, for which the self-cleavage was 0.095.
Consider G6A G11C, for which the self-cleavage was 0.222.
Next, G6A G40A: 0.505; G6A G40C: 0.232.
Under G5U U20G stands 0.111; under G6A A56G, 0.848.
In the case of G6A A56C, the self-cleavage stood at 0.571.
Next, G6A A56U: 0.601; G6C C49A: 0.262.
Next, G6A G28U: 0.0573; G6A G28C: 0.
In the case of G6A A16G, the self-cleavage turned out to be 0.573.
Take G6C U9C: the self-cleavage was 0.391.
Next, G6C U9G: 0.208.
Consider G5U C32U, for which the self-cleavage was 0.104.
With G6U A83C, the self-cleavage is 0.0852.
On to G6C C75A, for which the self-cleavage amounted to 0.0723.
Next, G6C C75G: 0.0536; G6C C22U: 0.185.
Next, G5U C33U: 0.615; G6C A71G: 0; G6C A71U: 0.138.
Next, G6C A16U: 0.199.
In the case of G6A A42U, the self-cleavage amounted to 0.283.
In the case of G6A A42C, the self-cleavage came to 0.0831.
Take G6A U37G: the self-cleavage was 0.128.
As for G6C G38U, the self-cleavage worked out at 0.203.
Next, G6C C85U: 0.401.
Next, G6A A71G: 0.762; G6A A71U: 0.554; G6A A71C: 0.269.
Take G6A C61A: the self-cleavage turned out to be 0.695.
On to G6A U27C, for which the self-cleavage is 0.268.
For G6A C63A, the self-cleavage turned out to be 0.407.
Next, G6A G52U: 0.694; G5U U69C: 0.277.
Under G5U U69A stands 0.262.
Under G6A A8C stands 0.323; under G6A A83U, 0.324.
Regarding G6C C44U, the self-cleavage came out at 0.
Next, G6C C7U: 0.787; G6C C7G: 0.475.
Take G5U G38C: the self-cleavage is 0.0875.
Under G6C A78C stands 0.0831; under G6C A78G, 0; under G5U G25A, 0.0346.
Next, G6C C84U: 0.0573.
Under G6C C84G stands 0.138; under G6C C84A, 0.332; under G6A U23G, 0.342.
On to G6A U23C, for which the self-cleavage was 0.532.
For G6U A56C, the self-cleavage was 0.665.
Next, G6A C26G: 0.856; G6A G39C: 0.0415; G6A G39U: 0.317.
Next, G5U U27C: 0.0978.
Next, G6A G31A: 0.0992.
As to G6A G31C, the self-cleavage came to 0.111.
Next, G6C C62G: 0.151.
Consider G6C C62U, for which the self-cleavage was found to be 0.193.
Next, G6C C21U: 0.0573.
On to G6C C26A, for which the self-cleavage worked out at 0.369.
Next, G6C C26U: 0.646; G6C C26G: 0.378.
Under G6C C61G stands 0.222; under G6C U37G, 0.0923; under G5U C85A, 0.594.
Next, G5U C85U: 0.399.
On to G5U G76U, for which the self-cleavage was determined as 0.529.
G5U U37G: the self-cleavage turned out to be 0.0755.
Turning to G5U U37C, the self-cleavage was 0.519.
Take G6C G34U: the self-cleavage was determined as 0.
Under G6C G34C stands 0.115; under G5U C26U, 0.864.
Under G5U C26G stands 0.615.
Next, G6A G59U: 0.755.
Regarding G6A G34C, the self-cleavage is 0.104.
Next, G6C U27C: 0.0923.
Next, G6C C66A: 0.201.
For the variant G6C C66U, the self-cleavage came out at 0.256.
G6U C13A: the self-cleavage amounted to 0.0875.
As for G6U C13G, the self-cleavage was found to be 0.
Next, G6A A87C: 0.635; G5U C64A: 0.499.
Under G5U C41A stands 0.172; under G6C C57A, 0.346; under G6A G76C, 0.764.
Next, G5U C66U: 0.677; G5U C66A: 0.609.
Regarding G6U C7U, the self-cleavage turned out to be 0.151.
Under G6C A83U stands 0.0692.
Under G6C A83C stands 0.0875.
For G6C G17A, the self-cleavage came to 0.
Next, G6U A70U: 0.46; G6U A70C: 0.135; G6C C19U: 0.0773.
Next, G6C A51G: 0.222; G6C A51U: 0.469; G5U C36U: 0.104.
Under G5U C36G stands 0.128; under G5U G10A, 0.135; under G5U C44G, 0.217.
For G5U C44A, the self-cleavage was determined as 0.119.
Next, G6A C66G: 0.456; G6C U65G: 0.115.
Under G5U C30G stands 0; under G5U C30U, 0.237; under G6C C24U, 0.
Next, G6C C24G: 0.151; G6U A16U: 0.305; G6C C36U: 0.175.
As for G6C C36G, the self-cleavage is 0.158.
Take G6A A70U: the self-cleavage was 0.399.
As to G6A A70C, the self-cleavage was 0.527.
In the case of G6C U69C, the self-cleavage was found to be 0.172.
Next, G6C C63G: 0.246; G6C C63A: 0.582; G5U C48G: 0.554.
For the variant G5U U60G, the self-cleavage came to 0.151.
Under G6U A87U stands 0.591; under G6C U47C, 0.453.
Under G5U U47G stands 0.222; under G5U G34C, 0; under G6A G74C, 0.155.
In the case of G6A G74A, the self-cleavage is 0.0923.
Next, G6A G74U: 0.104.
On to G6C G11U, for which the self-cleavage was 0.
Next, G6A G67A: 0.763.
Next, G6C U72G: 0.229; G5U G54C: 0.867; G5U G17A: 0.189.
Next, G5U G17C: 0; G6A G10C: 0.249.
For the variant G6A C57U, the self-cleavage came out at 0.665.
Next, G6C G74A: 0.0875; G6A A78U: 0.0297.
G6A C48A: the self-cleavage came to 0.465.
Next, G6A C48U: 0.759; G6A C48G: 0.657; G6C C32U: 0.63.
G6C C32G: the self-cleavage worked out at 1.1.
Next, G6C G82U: 0.122; G6A A43U: 0.116.
Under G6C C58G stands 0.133; under G6C C48A, 0.443.
Take G6C C48G: the self-cleavage amounted to 0.199.
Next, G6C G39C: 0.293.
Next, G6C G39U: 0.108; G6C G39A: 0.0405; G5U G59C: 0.415.
G5U G35A: the self-cleavage worked out at 0.156.
Under G5U G35U stands 0.108.
Take G5U G39U: the self-cleavage worked out at 0.136.
Turning to G6A C32G, the self-cleavage turned out to be 0.138.
For the variant G6A C32U, the self-cleavage turned out to be 1.12.
Under G6A G68U stands 0.691; under G6A G68C, 0.604; under G6C A87G, 0.288.
Next, G6A C24A: 0.283; G6A C24U: 0.308.
Next, G5U C63U: 0.38; G5U C63G: 0.
Consider G5U C63A, for which the self-cleavage turned out to be 0.332.
